{
  "source": "patent US20130005012A1",
  "about": "“ENZYMATIC SYSTEM FOR MONOMER SYNTHESIS” (PHYTOGENE, INC., priority 2011, published 2013)",
  "molecules": {"B1": {"name": "yeast PAD1 (phenylacrylic acid decarboxylase, Saccharomyces cerevisiae) in bait vector pGBKT7-Gateway (enzyme)", "chain": "VAITGATGVALGIRLLQVLKELSVETHLVISKWGAATMKYETDWEPHDVAALATKTYSVRDVSACISSGSFQHDGMIVVPCSMKSLAAIRIGFTEDLITRAADVSIKENRKLLLVTRETPLSSIHLENMLSLCRAGVIIFPPVPAFYTRPKSLHDLLEQSVGRILDCFGIHADTFPRWEGIKSK", "notes": "Yeast two-hybrid bait fusion expressed in Clontech Y2HGold cells; also called PAD1 (Bait vector); not shown: fusion partner encoded by yeast two-hybrid bait vector pGBKT7-Gateway"}, "B2": {"name": "yeast PAD1 (phenylacrylic acid decarboxylase, Saccharomyces cerevisiae) in prey vector pGADT7-Gateway (enzyme)", "chain": "B1 chain", "notes": "Yeast two-hybrid prey fusion expressed in Clontech Y2HGold cells; also called PAD1 (Prey vector); not shown: fusion partner encoded by yeast two-hybrid prey vector pGADT7-Gateway"}, "B3": {"name": "PAD1: phenylacrylic acid decarboxylase from S. cerevisiae, SEQ ID NO:10 encoded by SEQ ID NO:9 (protein, listed as Saccharomyces cerevisiae)", "chain": "MLLFPRRTNIAFFKTTGIFANFPLLGRTITTSPSFLTHKLSKEVTRASTSPPRPKRIVVAITGATGVALGIRLLQVLKELSVETHLVISKWGAATMKYETDWEPHDVAALATKTYSVRDVSACISSGSFQHDGMIVVPCSMKSLAAIRIGFTEDLITRAADVSIKENRKLLLVTRETPLSSIHLENMLSLCRAGVIIFPPVPAFYTRPKSLHDLLEQSVGRILDCFGIHADTFPRWEGIKSK"}, "B4": {"name": "yeast FDC (ferulic acid decarboxylase, FDC1, Saccharomyces cerevisiae) in bait vector pGBKT7-Gateway (enzyme)", "chain": "MRKLNPALEFRDFIQVLKDEDDLIEITEEIDPNLEVGAIMRKAYESHLPAPLFKNLKGASKDLFSILGCPAGLRSKEKGDHGRIAHHLGLDPKTTIKEIIDYLLECKEKEPLPPITVPVSSAPCKTHILSEEKIHLQSLPTPYLHVSDGGKYLQTYGMWILQTPDKKWTNWSIARGMVVDDKHITGLVIKPQHIRQIADSWAAIGKANEIPFALCFGVPPAAILVSSMPIPEGVSESDYVGAILGESVPVVKCETNDLMVPATSEMVFEGTLSLTDTHLEGPFGEMHGYVFKSQGHPCPLYTVKAMSYRDNAILPVSNPGLCTDETHTLIGSLVATEAKELAIESGLPILDAFMPYEAQALWLILKVDLKGLQALKTTPEEFCKKVGDIYFRTKVGFIVHEIILVADDIDIFNFKEVIWAYVTRHTPVADQMAFDDVTSFPLAPFVSQSSRSKTMKGGKCVTNCIFRQQYERSFDYITCNFEKGYPKGLVDKVNENWKRYGYK", "notes": "Yeast two-hybrid bait fusion expressed in Clontech Y2HGold cells; also called FDC (Bait vector); not shown: fusion partner encoded by yeast two-hybrid bait vector pGBKT7-Gateway"}},
  "key": {"FDC1": {"target": "T1, FDC1 (Saccharomyces cerevisiae, UniProt Q03034)", "T1 construct": "6xHis (N-terminal tag of vector pDEST17); made in house; host or cells: E. coli BL21(DE3)", "T1 sequence (Q03034 1-503)": "B4 chain", "assay": "Effect of metal ions on activity of purified FDC1", "assay_type": "biochemical", "settings": "10 mM metal ion, 1.4 mM tCA, pH 6.5, 5 minutes at 30° C., versus control without metal ions", "method": "To study the effect of metal ions on FDC1 activity, we carried out reactions with various metal ions, including ZnSO4, FeCl3, MnCl2, MgSO4, CaCl2, MnSO4, and FeSO4. Reaction mixtures of 25 mM potassium phosphate buffer pH 6.5 containing 1.4 mM tCA, 5 mM DTT, 10 mM metal ion, and 0.5 mg purified FDC1 adjusted to a final volume of 1 mL were incubated for 5 minutes at 30° C. After the reaction, 1 mL of propanol was added to the reaction mixtures to solubilize styrene. The experimental control used the same conditions except the reaction mixture contained no metal ions. The experimental negative control used the same conditions except the reaction mixture contained no substrate. […] The effects of Zn^2+ and Fe^3+ on FDC1 activity were further investigated using EDTA to cancel out the effects of the metal ions. Reaction mixtures of 25 mM potassium phosphate buffer pH 6.5 containing 1.4 mM tCA, 5 mM DTT, 10 mM metal ion, 10 mM EDTA and 0.5 mg purified FDC1 were adjusted to a final volume of 1 mL, and were incubated for 5 minutes at 30° C. After the reaction, 1 mL of propanol was added to the reaction mixtures to solubilize styrene. The experimental control used the same conditions except the reaction mixture contained no metal ions or EDTA. The experimental negative control used the same conditions except the reaction mixture contained no substrate. […] Based on results presented in FIGS. 10A and 10B, enzyme activity of FDC1 can be increased by metal ions and it was not due to experimental artifact."}, "[1]": {"target": "T2, yeast FDC (ferulic acid decarboxylase, FDC1, Saccharomyces cerevisiae) in prey vector pGADT7-Gateway (Saccharomyces cerevisiae, UniProt Q03034 1-503)", "T2 construct": "Yeast two-hybrid prey fusion expressed in Clontech Y2HGold cells; also called FDC (Prey vector); not shown: fusion partner encoded by yeast two-hybrid prey vector pGADT7-Gateway", "T2 sequence": "B4 chain", "assay": "yeast two-hybrid, growth on SD-Trp-Leu-His plate (bait PAD1, prey FDC)", "method": "(§1) We used yeast-two-hybrid system to test this hypothesis. […] Vectors pGBKT7-Gateway and pGADT7-Gateway are gifts from Dr. Brian P. Downes, Department of Biology, St Louis University (St Louis, Mo.). The resulting vectors were used to transform Clontech Y2HGold cells by one step transformation protocol as described in Example 4. 100 μl of the transformed cultures were spread on SD-Trp-Leu as well as SD-Trp-Leu-His plates and incubated at 30° C. for 3 days."}, "[2]": {"target": "B4", "assay": "yeast two-hybrid, growth on SD-Trp-Leu-His plate (bait FDC, prey PAD1)", "method": "as §1"}, "cinnamic acid [3]": {"tested_on": "cinnamic acid", "assay": "Feeding cinnamic acid to Wat11 yeast expressing the enzyme, HPLC of products", "assay_type": "cell-based, S. cerevisiae", "settings": "2 mM cinnamic acid, extracted after 8 hours", "method": "(§2) 0.8 ml of well-suspended cultures was taken out of the culture tube and 0.4 ml of ethyl acetate was added. The mixture was votexed at the maximum speed for half an hour and centrifuged at 15,000 rpm for 10 min at room temperature.\nThe extracted samples were analyzed by HPLC. HPLC was performed with an Agilent 1100 Series HPLC system using a SymmetryShield C18 column (Waters, 150×3.9 mm). The mobile phase consisted of solvent A (0.1% trifluoroacetic acid) and solvent B (acetonitrile). The gradient elution procedure was as follows: 0-5 min, 0% of B; 5-35 min, a linear gradient from 0% to 90% of B; 35-38 min, 90% of B; 38-40 min, 0% of B. The flow rate was 1.0 ml/min. The injection volume was 30 μl. Peaks for substrate and products areas were monitored at 260 nm. With this method, the retention times for cinnamic acid, p-coumaric acid, ferulic acid, styrene, 4-hydroxystyrene, and 4-vinylguaiacol (4-VG) were 21.5, 17.7, 17.7, 27.8, 22.3 and 22.1 min, respectively. […]\nAfter transformation, 100 μl of the transgenic yeast culture was spread on SD-trp medium (Clontech, Mountain View, Calif.) and incubated at 30° C. for 3 days. […] 2 mM cinnamic acid was added to 2 d-old yeast culture and the products were extracted with ethyl acetate after 8 hours and analyzed by HPLC."}, "cinnamic acid [4]": {"tested_on": "cinnamic acid", "assay": "Feeding cinnamic acid to E. coli BL21AI expressing the enzyme, HPLC of products", "assay_type": "cell-based", "settings": "2 mM cinnamic acid, 37° C.", "method": "as §2\n(§3) The extracted samples were analyzed by HPLC. HPLC was performed with an Agilent 1100 Series HPLC system using a SymmetryShield C18 column (Waters, 150×3.9 mm). The mobile phase consisted of solvent A (0.1% trifluoroacetic acid) and solvent B (acetonitrile). The gradient elution procedure was as follows: 0-5 min, 0% of B; 5-35 min, a linear gradient from 0% to 90% of B; 35-38 min, 90% of B; 38-40 min, 0% of B. The flow rate was 1.0 ml/min. The injection volume was 30 μl. Peaks for substrate and products areas were monitored at 260 nm. With this method, the retention times for cinnamic acid, p-coumaric acid, ferulic acid, styrene, 4-hydroxystyrene, and 4-vinylguaiacol (4-VG) were 21.5, 17.7, 17.7, 27.8, 22.3 and 22.1 min, respectively.\nPlasmid pDEST17-PAD1 was transformed into E. coli strain BL21AI competent cells (Invitrogen). An overnight culture (2 ml) was inoculated into 40 ml of LB medium supplemented with 100 µg/ml ampicillin. Bacteria were grown at 37° C. in a shaker at 250 rpm for 3 h and then 0.2% (w/v) arabinose was added to the culture, followed by the addition of 2 mM of cinnamic acid. […]"}, "cinnamic acid [5]": {"tested_on": "cinnamic acid", "assay": "Comparison of PAD1, FDC and OHBA1 activities in E. coli fed 1-40 mM cinnamic acid", "assay_type": "cell-based", "method": "Sample (0.5 ml) was taken various treatments, and extracted with 0.3 ml of ethyl acetate. The upper phase was used for the analysis of the product styrene, and the lower phase for the analysis of cinnamic acid left in the medium."}, "p-coumaric acid": {"tested_on": "p-coumaric acid", "assay": "Feeding p-coumaric acid to Wat11 yeast expressing FDC, HPLC of products", "assay_type": "cell-based, S. cerevisiae", "method": "as §2, §3"}, "ferulic acid [6]": {"tested_on": "ferulic acid", "assay": "Feeding ferulic acid to Wat11 yeast expressing FDC, HPLC of products", "assay_type": "cell-based, S. cerevisiae", "method": "as §2, §3"}, "ferulic acid [7]": {"tested_on": "ferulic acid", "assay": "Feeding ferulic acid to E. coli BL21AI expressing FDC, HPLC of products", "assay_type": "cell-based", "method": "as §2, §3\nIn E. coli, pDEST17-FDC was transformed into E. coli strain BL21AI competent cells (Invitrogen). An overnight culture (2 ml) was inoculated into 40 ml of LB medium supplemented with 100 µg/ml ampicillin. […] The induced culture was further incubated at 37° C. and samples were taken at different time points for the analysis."}, "[8]": {"target": "T2, yeast FDC (ferulic acid decarboxylase, …)", "assay": "yeast two-hybrid, growth on SD-Trp-Leu-His plate (bait FDC, prey FDC)", "method": "as §1"}},
  "data": [
    {"molecule": "[Ca+2].[Cl-].[Cl-]", "note": "[Ca^+2, CaCl2]", "values": [
      {"measurement": "effect on FDC1 activity (styrene produced)", "setting": "FDC1", "result": "increased the activity of FDC1"}
    ]},
    {"molecule": "[Cl][Fe]([Cl])[Cl]", "note": "[Fe^+3, FeCl3]", "values": [
      {"measurement": "effect on FDC1 activity (styrene produced)", "setting": "FDC1", "result": "increased the activity of FDC1"}
    ]},
    {"molecule": "O=S(=O)([O-])[O-].[Mg+2]", "note": "[Mg^+2, MgSO4]", "values": [
      {"measurement": "effect on FDC1 activity (styrene produced)", "setting": "FDC1", "result": "increased the activity of FDC1"}
    ]},
    {"molecule": "O=S(=O)([O-])[O-].[Zn+2]", "note": "[Zn^+2, ZnSO4]", "values": [
      {"measurement": "effect on FDC1 activity (styrene produced)", "setting": "FDC1", "result": "increased the activity of FDC1"}
    ]},
    {"molecule": "B1", "values": [
      {"measurement": "binding result", "setting": "[1]", "result": "no binding"}
    ]},
    {"molecule": "B2", "values": [
      {"measurement": "binding result", "setting": "[2]", "result": "no binding"}
    ]},
    {"molecule": "B3", "values": [
      {"measurement": "styrene production upon feeding of cinnamic acid", "setting": "cinnamic acid [3]", "result": "no styrene can be observed"},
      {"measurement": "styrene production upon feeding of cinnamic acid", "setting": "cinnamic acid [4]", "result": "no styrene production was observed"},
      {"measurement": "styrene production upon feeding of cinnamic acid", "setting": "cinnamic acid [5]; E. coli in LB+Amp medium, 1-10 mM cinnamic acid", "result": "failed to produce any styrene"}
    ]},
    {"molecule": "B4", "values": [
      {"measurement": "styrene production upon feeding of cinnamic acid", "setting": "cinnamic acid [3]", "result": "production of styrene"},
      {"measurement": "4-hydroxystyrene production upon feeding of p-coumaric acid", "setting": "p-coumaric acid", "result": "production of 4-hydroxystyrene"},
      {"measurement": "4-VG production upon feeding of ferulic acid", "setting": "ferulic acid [6]", "result": "production of 4-VG"},
      {"measurement": "styrene production upon feeding of cinnamic acid", "setting": "cinnamic acid [4]", "result": "Production of styrene was observed"},
      {"measurement": "4-vinylguaiacol (4-VG) production upon feeding of ferulic acid", "setting": "ferulic acid [7]", "result": "Production of 4-vinylguaiacol (4-VG) was also observed"},
      {"measurement": "styrene biosynthesis", "setting": "cinnamic acid [5]; E. coli, after feeding on cinnamic acid substrate for 2 h", "result": 94.6, "unit": "mg/L"},
      {"measurement": "binding result", "setting": "[8]", "result": "binds"}
    ]}
  ]
}
